From article PMC11963547

Target: penicillin-binding protein 2a (S. aureus (endogenous in strain USA300))
Test: cross-linking + native gel or EMSA

Substance: penicillin-binding protein 2a (natural protein)
- stoichiometry N: 3
